Test results taken from patent US20240376180A1 (DEUTSCHES ZENTRUM FUR NEURODEGENERATIVE ERKRANKUNGEN E V …, published 2024).

T1: Fc fusion protein of the RBD-SD1 region of MERS-CoV (MERS-CoV, UniProt K9N5Q8 367-655)
T1 sequence: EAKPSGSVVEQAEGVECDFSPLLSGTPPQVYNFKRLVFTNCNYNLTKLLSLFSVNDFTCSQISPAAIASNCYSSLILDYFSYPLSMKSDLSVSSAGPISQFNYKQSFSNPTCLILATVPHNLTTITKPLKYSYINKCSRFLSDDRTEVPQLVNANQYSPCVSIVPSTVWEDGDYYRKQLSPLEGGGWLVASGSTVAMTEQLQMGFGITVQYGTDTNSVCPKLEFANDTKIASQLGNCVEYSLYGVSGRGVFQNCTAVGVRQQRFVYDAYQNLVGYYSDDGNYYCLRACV

T2: Fc fusion protein of the RBD-SD1 region of HCoV-HKU1 (HCoV-HKU1, UniProt Q5MQD0 310-677)
T2 construct: domain: RBD-SD1 region
T2 sequence: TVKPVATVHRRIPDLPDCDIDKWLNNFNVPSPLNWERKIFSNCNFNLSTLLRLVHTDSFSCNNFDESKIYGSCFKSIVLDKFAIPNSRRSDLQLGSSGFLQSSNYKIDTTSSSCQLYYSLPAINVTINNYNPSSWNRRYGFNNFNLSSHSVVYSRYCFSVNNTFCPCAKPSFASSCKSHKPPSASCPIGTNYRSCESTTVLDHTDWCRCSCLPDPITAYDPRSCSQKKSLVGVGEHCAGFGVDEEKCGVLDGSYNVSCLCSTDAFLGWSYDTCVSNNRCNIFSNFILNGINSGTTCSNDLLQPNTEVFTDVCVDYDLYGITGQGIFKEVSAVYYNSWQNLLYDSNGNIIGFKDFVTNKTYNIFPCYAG

T3: Fc fusion protein of the RBD-SD1 region of HCoV-OC43 (HCoV-OC43, UniProt P36334 318-675)
T3 construct: domain: RBD-SD1 region
T3 sequence: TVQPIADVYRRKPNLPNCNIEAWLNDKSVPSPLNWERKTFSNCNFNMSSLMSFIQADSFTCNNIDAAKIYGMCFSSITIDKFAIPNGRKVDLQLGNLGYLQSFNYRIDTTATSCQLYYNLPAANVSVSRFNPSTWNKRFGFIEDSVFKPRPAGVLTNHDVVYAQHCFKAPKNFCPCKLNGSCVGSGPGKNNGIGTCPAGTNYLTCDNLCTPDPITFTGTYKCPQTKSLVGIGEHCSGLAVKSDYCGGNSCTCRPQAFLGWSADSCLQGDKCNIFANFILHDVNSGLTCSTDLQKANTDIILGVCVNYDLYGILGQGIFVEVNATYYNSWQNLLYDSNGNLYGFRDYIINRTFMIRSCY


Tests used:
[1] = target: SARS-CoV-2 S protein-RBD-mFc (SARS-CoV-2, UniProt P0DTC2 319-537)
beta-2 microglobulin = beta-2 microglobulin (Homo sapiens (Human), UniProt P61769 21-119); assay: routine laboratory ELISA
[2] = target: T4, Spike protein of authentic SARS-CoV-2 (Munich isolate 984) (SARS-CoV-2, UniProt P0DTC2 14-1273); assay: cell-based or functional assay; parameters: IC90 Neutralizing Assay: unit not given beside the values
[3] = target: T4, Spike protein of authentic SARS-CoV-2 …; assay: cell-based or functional assay
[4] = target: Fc fusion protein of the RBD-SD1 region of SARS-CoV (SARS-CoV, UniProt P59594 306-577); assay: ELISA on captured RBD-SD1-Fc
[5] = target: T1, Fc fusion protein of the RBD-SD1 region …; assay: ELISA on captured RBD-SD1-Fc
[6] = target: T2, Fc fusion protein of the RBD-SD1 region …; assay: ELISA on captured RBD-SD1-Fc
[7] = target: T3, Fc fusion protein of the RBD-SD1 region …; assay: ELISA on captured RBD-SD1-Fc

Chain of beta-2 microglobulin (P61769 21-119 limits assumed): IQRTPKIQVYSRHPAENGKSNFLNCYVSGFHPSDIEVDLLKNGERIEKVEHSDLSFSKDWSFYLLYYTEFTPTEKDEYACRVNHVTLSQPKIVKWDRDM

Binder	Kd [1] [nM]	binding result (beta-2 microglobulin)	IC50 Neutralizing Assay [2]	IC50 (PRNT, authentic SARS-CoV-2) [3] [µg/mL]	binding result [4]	binding result [5]	binding result [6]	binding result [7]	IC90 Neutralizing Assay [2]
HK CV07-209 (antibody, V domains shown) VH: QVQLVESGGGLVKPGGSLRLSCAASGFTFSDYYMSWIRQAPGKGLEWVSYISSSVSTIYYADSVKGRFTISRDNAKNSLYLQMNSLRAEDTAVYYCARDGVIPPRFDYWGQGTLVTVSS VL: not shown	0.006	no binding (tested: 50 µg/ml)	< 0.05 µg/mL	0.0031	no binding (tested: 1 µg/ml)	no binding (tested: 1 µg/ml)	no binding (tested: 1 µg/ml)	no binding (tested: 1 µg/ml)	
HK CVX1-126 (antibody, V domains shown) VH: EVQLVESGGGLVQPGGSLRLSCAASGLTVSSNYMSWVRQAPGKGLEWVSVIYSGGSTYYADSVKGRFTISRHNSKNTLYLQMNSVRAEDTAVYYCARDLSEGGMDVWGQGTTVTVSS VL: DIQMTQSPSSVSASVGDRVTITCRASQGISSWLAWYQQKPGKAPKLLIYAASTLQSGVPSRFSGSGSGTDFTLTISSLQPEDFATYYCQQANGFPPLFGGGTKVEIKR	0.243	no binding (tested: 50 µg/ml)		0.0717	no binding (tested: 1 µg/ml)	no binding (tested: 1 µg/ml)	no binding (tested: 1 µg/ml)	no binding (tested: 1 µg/ml)	
HK CV38-221 (antibody, V domains shown) VH: EVQLVESGGGLVQPGGSLRLSCAASGITVSSNYMIWVRQAPGKGLEWVSVIYSGGSTYYADSVKGRFTISRDNSKNTLYLQMNSLRAEDTAVYYCARGFGDYYFDYWGQGTLVTVSS VL: EIVLTQSPGTLSLSPGERATLSCRASQSVSSSYFAWYQQKPGQAPRLLIYGASSRATGIPDRFSGSGSGTDFTLTISRLEPEDFAVYYCQQLYTFGQGTKLEIKR	0.499	no binding (tested: 50 µg/ml)		0.173	no binding (tested: 1 µg/ml)	no binding (tested: 1 µg/ml)	no binding (tested: 1 µg/ml)	no binding (tested: 1 µg/ml)	
HL CV07-270 (antibody, V domains shown) VH: QVQLVESGGGLVKPGGSLRLSCAASGFTFSDYYMTWIRQAPGKGLEWVSYISSSGSTIYYADSVKGRFTISRDNAKNSLYLQMNSLRAEDTAVYYCARARGSSGWYRIGTRWGNWFDPWGQGTLVTVSS VL: QSALTQPASVSGSPGQSITISCTGTSSDVGGYNYVSWYQQHPGKAPKLMIYEVSNRPSGVSNRFSGSKSGNTASLTISGLQAEDEADYYCSSYTSSSNVVFGGGTMLTVLG		no binding (tested: 50 µg/ml)		0.0823	no binding (tested: 1 µg/ml)	no binding (tested: 1 µg/ml)	no binding (tested: 1 µg/ml)	no binding (tested: 1 µg/ml)	~500
HL CV07-222 (antibody, V domains shown) VH: QVQLVQSGAEVKKPGASVKVSCKASGYTFTDYYVHWVRQAPGQGLEWMGWINPISGGTNYAQKFQGRVTMTRDTSISTAYMELSRLRSDDTAVYYCARGPYYYDSSGSLGAFDIWGQGTMVTVSS VL: QSALTQPASVSGSPGQSITISCTGTSSDVGSYNLVSWYQQHPGKAPKLMIYEGSKRPSGVSNRFSGSKSGNTASLTISGLQAEDEAHYYCCSYAGGSTSYVFGTGTKVTVLG	0.00697	no binding (tested: 50 µg/ml)	< 0.05 µg/mL	0.0078	no binding (tested: 1 µg/ml)	no binding (tested: 1 µg/ml)	no binding (tested: 1 µg/ml)	no binding (tested: 1 µg/ml)	
HK CV38-113 (antibody, V domains shown) VH: EVQLVESGGGLVQPGGSLRLSCAASGFTVSSNYMSWVRQAPGKGLEWVSVIYSGGSTYYADSVKGRFTISRHNSKNTLYLQMNSLRAEDTAVYFCARGGRLADAAGDYWGQGTLVTVSS VL: not shown	0.134	no binding (tested: 50 µg/ml)	~0.05 µg/mL	0.0208	no binding (tested: 1 µg/ml)	no binding (tested: 1 µg/ml)	no binding (tested: 1 µg/ml)	no binding (tested: 1 µg/ml)	
HL CV07-262 (antibody, V domains shown) VH: QVQLVQSGAEVKKPGASVKVSCKASGYTFTGYYMHWVRQAPGQGLEWMGWINPNSGGTNYAQTFQGRVTMTRDTSITTTYMELSRLRSDDTAVYYCARVGWYDFGTPGDYYYYYGMDVWGQGTTVTVSS VL: QSALTQPASVSGSPGQSITISCTGTSSDVGSYNLVSWYQQHPGKAPKLMIYEGSKRPSGVSNRFSGSKSGNTASLTISGLQAEDEADYFCCSYAGTSTFVFGTGTKVTVLG	0.079	no binding (tested: 50 µg/ml)	< 0.05 µg/mL	0.0071	no binding (tested: 1 µg/ml)	no binding (tested: 1 µg/ml)	no binding (tested: 1 µg/ml)	no binding (tested: 1 µg/ml)	~500
HL CV07-267 (antibody, V domains shown) VH: not shown VL: QSALTQPASVSGSPGQSITISCTGTSSDVGSYNLVSWYQQHPGKAPKLMIYEVSKRPSGVSNRFSGSKSGNTASLTISGLQAEDEADYYCCSYAGSSSWVFGGGTKLTVLG			~500						
HL CV07-255 (antibody, V domains shown) VH: not shown VL: QSALTQPASVSGSPGQSITISCTRTSSDVESYNLVSWYQQHPGKAPKLMIYEVSKRPSGISNRFSGSKSGNTASLTISGLQAEDEADYYCCSYAGHSTWVFGGGTELTVLG		no binding (tested: 50 µg/ml)	~0.05 µg/mL	0.0145	no binding (tested: 1 µg/ml)	no binding (tested: 1 µg/ml)	no binding (tested: 1 µg/ml)	no binding (tested: 1 µg/ml)	
HK CVX2-106 (antibody, V domains shown) VH: QVQLVQSGAEVKKPGSSVKVSCKASGGTFSSYAISWVRQAPGQGLEWMGGIIPIFGTANYAQKFQGRVTITADESTSTAYMELSSLRSEDTAVYYCATRKETTVTTSLVYGMDVWGQGTTVTVSS VL: not shown		no binding (tested: 50 µg/ml)	~0.5 µg/mL	0.0176	no binding (tested: 1 µg/ml)	no binding (tested: 1 µg/ml)	no binding (tested: 1 µg/ml)	no binding (tested: 1 µg/ml)	
HK CV38-139 (antibody, V domains shown) VH: EVQLVESGGGLVQPGGSLRLSCAASGFTVSSNYMSWVRQAPGKGLEWVSVFYSGGSTFYADSVKGRFTISRDNSKNTLYLQMNSLRAEDTAVYYCARGHYDLFDYWGQGTLVTVSS VL: DIQLTQSPSFLSASVGDRVTITCRASQGISSYLAWYQQKPGKAPKLLIYAASTLQSGVPSRFSGSGSGTEFTLTISSLQPEDFATYYCQQLNSYPPGTFGPGTKVDIKR	0.277	no binding (tested: 50 µg/ml)		0.0732	no binding (tested: 1 µg/ml)	no binding (tested: 1 µg/ml)	no binding (tested: 1 µg/ml)	no binding (tested: 1 µg/ml)	
